The values that follow come from patent publication US20190327974A1, “SYNERGISTS FOR IMPROVED PESTICIDES” (priority 2017, published 2019).

The test system of data set [1] is CCCC(=O)Oc1ccc([N+](=O)[O-])cc1. Briefly: Inhibition of Gly137Asp LcαE7, 4-nitrophenol butyrate hydrolysis. It counts as biochemical, Lucilia cuprina. The note with it: other: Gly137Asp αE7, room temperature; pH 7.5. The text has this:
(§1) The term “carboxyethylesterase” (CBE), refers to insect carboxylesterases from the alpha and beta and non-microsomal gene clusters, as defined in Oakeshott, Claudianos, Campbell, Newcomb and Russell, “Biochemical Genetic and Genomics of Insect Esterases”, pp 309-381, Chapter 10, Volume 5, 2005, Eds. Gilbert, Iatrou, Gill, published—Elsevier which is incorporated herein by reference. The αE7 CBE is an example of an alpha esterase, and is found in the sheep blowfly, Lucilia cuprina, with homologous genes being present in other insect pests. […]
(§2) His6-tagged proteins were expressed in BL21(DE3) E. coli (Invitrogen) at 26° C. for 18 hours. […] Protein concentration was determined by measuring the absorbance at 280 nm with an extinction coefficient calculated using the Protparam online server (Gasteiger, E. et al. Protein identification and analysis tools on the ExPASy server. Proteomics Protoc. Handb. 571-607 (2005). doi:10.1385/1-59259-890-0:571).
(§3) Inhibition of wild-type αE7 and the Gly137Asp αE7 variant was determined by a competition assay between the native-substrate analogue 4-nitrophenol butyrate (Sigma) and the boronic acid compounds. Initially, the Michalis constant (KM) with 4-nitrophenol butyrate was measured for both enzymes to determine an appropriate concentration of substrate for use in the competition assays. […]

Data set [2] has the same test system. Nature of the data set: Inhibition of wild-type LcαE7, 4-nitrophenol butyrate hydrolysis. The note with it: other: wildtype αE7, room temperature; pH 7.5. It counts as biochemical, Lucilia cuprina.
Description: as §1, §2, §3

The subject of data set [3] is other serine hydrolases (e.g. α-lytic protease). The note with it: cited from earlier work.

“Lucilia cuprina αE7 carboxylesterase (LcαE7) variant Gly137Asp (Lucilia cuprina; G137D)”: the Michaelis-Menten constant (Km) in data set [1] was found to be 250 µM.

As to “Lucilia cuprina αE7 carboxylesterase (LcαE7), wild type, GenBank AAB67728.1 (Lucilia cuprina)”, in data set [2], the Km stood at 15 µM.

As for `OB(O)c1ccccc1` [PBA, phenylboronic acid], in data set [3], the “inhibition of other serine hydrolases” value is given as “micromolar to millimolar inhibition”.

In general, Km refers to the concentration of substrate that gives half-maximal velocity.
